Assay results reported in publication PMC2064056.

Experiments:
[1] = biological target: LF2p, full-length coding region, GAL4 two-hybrid fusion (C. reinhardtii) (UniProt A0MM70); assay: two-hybrid
[2] = biological target: LF1p (aa 1-330), GAL4 two-hybrid fusion (C. reinhardtii) (UniProt Q7XJJ6); assay: two-hybrid

LF3p, full-length coding region, GAL4 two-hybrid fusion (natural protein)
β-galactosidase (Miller units) [1]: 15.8 Miller units
β-galactosidase (Miller units) [2]: 61.1 Miller units
